For one substance, stoichiometry N results are on record in article PMC7684303.

The target of the experiment is MBS complex (membrane-bound sulfane sulfur reductase), monomeric 13-subunit complex (Pyrococcus furiosus). The experiment in a line: cryo-EM structure; MBS purified in DDM, ~5 mg/ml; grids prepared under aerobic conditions; twofold symmetry applied; overall resolution 4.0 Å.

Broadly, the stoichiometry N is a count of units in the complex or per binding partner. For the substance “MBS complex (membrane-bound sulfane sulfur reductase), monomeric 13-subunit complex”, the stoichiometry N amounted to 2.
